From patent US20250144141A1 (CDR LIFE, published 2025)

How the values were obtained:
[1] = molecular target: T1, HLA-A*02:01/MAGE-A4 complex (human, UniProt P04439 25-299 at identity 0.94); P61769 21-119); experiment: SPR
T1 construct: Coated on ELISA plates and on a streptavidin SPR chip; a biotin tag is not described; also called HLA-A2/MAGE-A4 complex; pMHC-MAGE-A4

[2] = molecular target: T1, HLA-A*02:01/MAGE-A4 complex; experiment: direct ELISA, plate coated with HLA-A*02:01/MAGE-A4 complex, as in Example 6
[3] = molecular target: HLA-A*02:01/MAGE-A4 displayed on T2 cells (human); experiment: cell-based or functional assay
[4] = molecular target: T1, HLA-A*02:01/MAGE-A4 complex; experiment: SPR (Biacore T200), HLA-A*02:01/MAGE-A4 as ligand; sample kept in human serum at 37 C for 0, 7 and 24 h and injected after 1:100 dilution; signal relative to the start sample

Kd [1] [nM]	Binder	further results
1	M1068 (bispecific antibody) chain 1: SYELTQPPSVSVSPGQTASITCTADTLSRSYASWYQQKPGQSPVLVIYRDTSRPSGIPERFSGSNSGNTATLTISGTQAMDEADYYCATRPSSGSNFQLFGGGTKLTVLGGGGGGSGGGGSGGGGSGGGGSEVQLLESGGGSVQPGGSLRLSCTVSGFSLSNYAMSWVRQAPGKGLEWIGIVSSGGTTYYASWAKGRFTISKDTSKNTVYLQMNSLRAEDTASYYCAKDLYYGPTTYSAFNLWGQGTSVTVSS chain 2: EVQLVESGGGLVQPGGSLRLSCAASGFTFSTYAMNWVRQAPGKGLEWVGRIRSKYNNYATYYADSVKGRFTISRDDSKNTLYLQMNSLRAEDTAVYYCVRHGNFGDSYVSWFAYWGQGTLVTVSSASTKGPSVFPLAPSSKSTSGGTAALGCLVKDYFPEPVTVSWNSGALTSGVHTFPAVLQSSGLYSLSSVVTVPSSSLGTQTYICNVNHKPSNTKVDKRVEPKSC chain 3: QAVVTQEPSLTVSPGGTVTLTCGSSTGAVTTSNYANWVQQKPGKSPRGLIGGTNKRAPGVPARFSGSLLGGKAALTISGAQPEDEADYYCALWYSNHWVFGGGTKLTVLGQPKAAPSVTLFPPSSEELQANKATLVCLISDFYPGAVTVAWKADSSPVKAGVETTTPSKQSNNKYAASSYLSLTPEQWKSHRSYSCQVTHEGSTVEKTVAPTECS	
1.4	M1394 (bispecific antibody) chain 1: SSELTQDPAVSVALGQTVRITCTADTLSRSYASWYQQKPGQAPVLVIYRDTSRPSGIPDRFSGSSSGNTASLTITGAQAEDEADYYCATRPSSGSNFQLFGGGTKLTVLGGGGGSGGGGSGGGGSGGGGSEVQLLESGGGSVQPGGSLRLSCTVSGFSLSNYAMSWVRQAPGKGLEWIGIVSSGGTTYYASWAKGRFTISRDNSKNTVYLQMNSLRAEDTASYYCAKDLYYGPNTDYSAANLWGQGTSVTVSS chain 2: EVQLVESGGGLVQPGGSLRLSCAASGFTFSTYAMNWVRQAPGKGLEWVGRIRSKYNNYATYYADSVKGRFTISRDDSKNTLYLQMNSLRAEDTAVYYCVRHGNFGDSYVSWFAYWGQGTLVTVSSASTKGPSVFPLAPSSKSTSGGTAALGCLVKDYFPEPVTVSWNSGALTSGVHTFPAVLQSSGLYSLSSVVTVPSSSLGTQTYICNVNHKPSNTKVDKRVEPKSC chain 3: QAVVTQEPSLTVSPGGTVTLTCGSSTGAVTTSNYANWVQQKPGKSPRGLIGGTNKRAPGVPARFSGSLLGGKAALTISGAQPEDEADYYCALWYSNHWVFGGGTKLTVLGQPKAAPSVTLFPPSSEELQANKATLVCLISDFYPGAVTVAWKADSSPVKAGVETTTPSKQSNNKYAASSYLSLTPEQWKSHRSYSCQVTHEGSTVEKTVAPTECS	
0.8	M1312 (bispecific antibody) chain 1: SSELTQDPAVSVALGQTVRITCTADTLSRSYASWYQQKPGQAPVLVIYRDTSRPSGIPDRFSGSSSGNTASLTITGAQAEDEADYYCATRPSSGSNFQLFGGGTKLTVLGGGGGSGGGGSGGGGSGGGGSEVQLLESGGGSVQPGGSLRLSCTVSGFSLSNYAMSWVRQAPGKGLEWIGIVSSGGTTYYASWAKGRFTISKDTSKNTVYLQMNSLRAEDTASYYCAKDLYYGPNTDYSAANLWGQGTSVTVSS chain 2: EVQLVESGGGLVQPGGSLRLSCAASGFTFSTYAMNWVRQAPGKGLEWVGRIRSKYNNYATYYADSVKGRFTISRDDSKNTLYLQMNSLRAEDTAVYYCVRHGNFGDSYVSWFAYWGQGTLVTVSSASTKGPSVFPLAPSSKSTSGGTAALGCLVKDYFPEPVTVSWNSGALTSGVHTFPAVLQSSGLYSLSSVVTVPSSSLGTQTYICNVNHKPSNTKVDKRVEPKSC chain 3: QAVVTQEPSLTVSPGGTVTLTCGSSTGAVTTSNYANWVQQKPGKSPRGLIGGTNKRAPGVPARFSGSLLGGKAALTISGAQPEDEADYYCALWYSNHWVFGGGTKLTVLGQPKAAPSVTLFPPSSEELQANKATLVCLISDFYPGAVTVAWKADSSPVKAGVETTTPSKQSNNKYAASSYLSLTPEQWKSHRSYSCQVTHEGSTVEKTVAPTECS	
	M0873 (antibody, V domains shown) VH: ESQVLESGGGSVQPGGSLRLSCTVSGFSLSNYAMSWVRQAPGKGLEYIGIVSSGGTTYYASWAKGRFTISKDTSKNTVYLQMNSLRAEDTASYYCAKDLYYGPTTYSAFNLWGQGTSVTVSS VL: SYELTQPPSVSVSPGQTASITCTADTLSRSYASWYQQKPGQSPVLVIYRDTSRPSGIPERFSGSNSGNTATLTISGTQAMDEADYYCATSDGSGSNFQLFGGGTKLTVL	EC50 (read off the curve) [2]: ~1 nM
	M1397 (bispecific antibody, Fab(scFv)2 dual pMHC-targeting T cell engager, no Fc; also called dual engager M1397; dual T cell engager M1397) heavy: EVQLVESGGGLVQPGGSLRLSCAASGFTFSTYAMNWVRQAPGKGLEWVGRIRSKYNNYATYYADSVKGRFTISRDDSKNTLYLQMNSLRAEDTAVYYCVRHGNFGDSYVSWFAYWGQGTLVTVSSASTKGPSVFPLAPSSKSTSGGTAALGCLVKDYFPEPVTVSWNSGALTSGVHTFPAVLQSSGLYSLSSVVTVPSSSLGTQTYICNVNHKPSNTKVDKRVEPKSCGGGGSQSVLTQDPAVSVALGQTVRITCTADTLSRSYASWYQQKPGQAPVLVIYRDTSRPSGIPDRFSGSSSGNTASLTITGAQAEDEADYYCATRPSSGSNFQAFGGGTKLTVLGGGGGSGGGGSGGGGSGGGGSEVQLLESGGGSVQPGGSLRLSCTVSGFSLSNYAMSWVRQAPGKGLEWIGIVSSGGTTYYADSVKGRFTISRDNSKNTVYLQMNSLRAEDTASYYCAKDLYYGPNTDYSAANLWGQGTSVTVSS light: QAVVTQEPSLTVSPGGTVTLTCGSSTGAVTTSNYANWVQQKPGKSPRGLIGGTNKRAPGVPARFSGSLLGGKAALTISGAQPEDEADYYCALWYSNHWVFGGGTKLTVLGQPKAAPSVTLFPPSSEELQANKATLVCLISDFYPGAVTVAWKADSSPVKAGVETTTPSKQSNNKYAASSYLSLTPEQWKSHRSYSCQVTHEGSTVEKTVAPTECSGGGGSQSVLTQDPAVSVALGQTVRITCTADTLSRSYASWYQQKPGQAPVLVIYRDTSRPSGIPDRFSGSSSGNTASLTITGAQAEDEADYYCATRPSSGSNFQAFGGGTKLTVLGGGGGSGGGGSGGGGSGGGGSEVQLLESGGGSVQPGGSLRLSCTVSGFSLSNYAMSWVRQAPGKGLEWIGIVSSGGTTYYADSVKGRFTISRDNSKNTVYLQMNSLRAEDTASYYCAKDLYYGPNTDYSAANLWGQGTSVTVSS	IFN-gamma release (T cell activation) with PBMCs and T2 cells pulsed with titrated peptide, compound at 1 nM; EC50 on the peptide concentration [3]: 5.75 nM; binding result [4]: binds
